# The DeepSol protein solubility set
# Experiment: soluble on expression in E. coli; label from the status in PepcDB or PDB records
row,Sequence,soluble on expression in E. coli
1,MGSDKIHHHHHHMDWGIYMKQLPFKAVAVDVDGTFENDKKEYDHEMFGEILYRLHKHGAHFIIASGRPAGRLSDDFGDFIDSVDFVADNGAVLVRDGKIIRTTCFSKKGILHLIDYMHQRYPGSVTTLLISGVKHSYFLKSTPPEFKRSHHYFYPNSIEIDDFSQIPADDQYTKITVDYPSKVRHELEYGFNSRSMEKIHVTTSGWNYMDIIPQGVNKATGLKEFLAYLDVPRSELIAFGDGENDIEMLKLAGLSYAMENGQNSVKKIANFIAPSNNDNGVFKVLNHYLNEVNK,not soluble
2,MGSDKIHHHHHHMSSLEDILALTSALIRYRSTDTRPEERDRCAAHIMRWCDAEDIASSRVDNNGVTSLIIGPASKRAPLLFMAHYDVVEGPDALFQPVLSDSVLKGRGSIDDKYAVALSLVLFRDHLRHLRAQGRSQDDMPLQLLITGDEETGGYDGARHALGHVGAEFCIALDGGSPSTVITKEKGIIDCTLTAHGRAAHGARPWLGTNAVECLMADYMALKRLFPGQDDPTDPIHWHRSLNLGIVRAGSAVNQVPDLATAWLDVRYTEHDDPQALFAAMQESIRGELVATRTEPVFHSGETPWIDRLLACAPGASTGFAHGASDARFLSEHGIPGVVWGAEGETSQHGPDEHLLVDSLDTVHKALAAFVRTAGGTA,not soluble
3,MSLTIIHPLLASRSAPNYRQSWRLAGVWRRAINLMTESGELLTLHRQGSGFGPGGWVLRRAQFDALCGGLCGNERPQVVAQGIRLGRFTVKQPQRYYLLRITPPAHPQALAVAWMQRAEETGLFGPLALAASDPLPAELRQFRHCFQAALNGVKTDWRHWLGKGPGLTPSHDDTLSGMLLAAWYYGALDARSGRPFFACSDNLQLVTTAVSVSYLRYAAQGYFASPLLHFVHALSCPKRTAAAIDSLLALGHTSGADTLLGFWLGQQLLQGKEGHHHHHH,soluble
4,MGSDKIHHHHHHMKPSIYSLTRNDLIAWTIEHGEKKFRATQIWDWLYRKRVQSFEEMTNLSKDFIALLNENFLVNPLKQRIVQESADGTVKYLFELPDGMLIETVLMRQHYGLSVCVTTQVGCNIGCTFCASGLIKKQRDLNNGEITAQIMLVQKYFDERGQGERISHVVVMGIGEPFDNYDNVLKFLRTINDDNGLAIGARHITVSTSGLAHKIRDFANEGVQVNLAVSLHAPNNELRSSIMRINRSFPLEKLFAAIEYYIETTNRRVTFEYIMLNGVNDSPENAQELADLTKKIRKLSYVNLIPYNPVTEHDQYSRSPKERVDAFYDVLKKNGVNCVVRQEHGTDIDAACGQLRSNTMKRDREKATAGTAQ,not soluble
5,MGSSHYHHHHSSGLVPRGSHMAEKPISPTKTRTRFEDIQAHYDVSDDFFALFQDPTRTYSCAYFEPPELTLEEAQYAKVDLNLDKLDLKPGMTLLDIGCGWGTTMRRAVERFDVNVIGLTLSKNQHARCEQVLASIDTNRSRQVLLQGWEDFAEPVDRIVSIEAFEHFGHENYDDFFKRCFNIMPADGRMTVQSSVSYHPYEMAARGKKLSFETARFIKFIVTEIFPGGRLPSTEMMVEHGEKAGFTVPEPLSLRPHYIKTLRIWGDTLQSNKDKAIEVTSEEVYNRYMKYLRGCEHYFTDEMLDCSLVTYLKPGAAA,soluble
6,SHMTDDKKKGKFIVFEGLDRSGKSTQSKLLVEYLKNNNVEVKHLYFPNRETGIGQIISKYLKMENSMSNETIHLLFSANRWEHMNEIKSLLLKGIWVVCDRYAYSGVAYSSGALNLNKTWCMNPDQGLIKPDVVFYLNVPPNYAQNRSDYGEEIYEKVETQKKIYETYKHFAHEDYWINIDATRKIEDIHNDIVKEVTKIKVEPEEFNFLWS,soluble
7,MATGAMSRSNDWTKSLSDAQPVPYWLDDPGRPRPEAALTGTETCDLLVVGGGYSGLWTALIAKERDPGRDVVLIEGREVGWAASGRNGGFCAASLTHGLSNGLTRWPDDIHRLEELGARNLDAIEAAVARHGLDCDFERTGEIDVATEPHQARELEEWYAEIRAQGLAEGVEYLDAEAVREQVDSPTFRAGLWDRRGVAMVNPAKLAWGLKRACLALGVRVHEHTPALTLKPYGAGMAVRTPYGAVRARTVALGTNVFPNLVRRVRPYTVPVYDYALMTEPLSDGQLASVGWQNRQGLGDSANQFHYFRLSRDNRILWGGYDAVYPYGGRVRAEYDHRPETYAKLAGHFFTCFPQLEGVRFTHAWGGAIDTCSRFSAFFGTAHRGRVAYAAGYTGLGVGATRFGAEVMLDLLSGERTERTELEMVRTKPLPFPPEPFAWTGIALTKWSLARADAHGGRRNLWLRTMDRLGLGFDSLEHHHHHH,not soluble
8,MGSDKIHHHHHHMQSPIPVLSMRKLYLGASDRQQFIADLGRAARDVGFFYLEDHGISLAEQVKVLDTAKSFFALSDAEKKQVQMIHSPHFRGYSANYSELTAGRPDRREQFDIMDELPALSASAIHHEWQKLIGPNQWPRQLPAIKSQLLSWQDKLTEVSLQLLAALCESLEQPADALAETISNGPYRHTKLIKYPGSPEASGQGVGAHKDPGYLTLVLQDENSGLEVEYEQQWYKVAPRPGAFVVNIGELLELASNGYLKATNHRVSSPKTGVTRYSSAFFMAAQLNASVPVLKLPSHLAKHAKGPTSDPGNPLLHNVGENVMKGRKRSHPDVSARFYASEEKCSSC,not soluble
9,MAGGLFKLMKDKSVDHSHLHKDHSIHHPTPPRSFFSSSSLAVHPNVETAQSSSEEDLRMPNIKVFSGSSHPDLSTRICERLQLEVSKASLKKFSNKETNVEIGESVRGEDVYIIQSAAGEINDNLMELLIMINACKIASSCRVAAVIPAFPYARQDKKDKSRAPISAKLVANMLSVAGADHIITMDLHASQIQGFFDIPVDNLYAEPAILKYIKESIPNWQTSVIVSPDAGGAKRVTSIADRLNVDFALIHKESKRANEVEKMTLVGSVEGKVAILVDDMADTCGTICMAADKLVEAGADKVYAFCVHGIFSGPALTRLNASKFEAVVVTNTIPQDENMKKCSKIQCIDISMILAEAIRRTHNGESVSYLFSHVPIC,not soluble
10,MGSDKIHHHHHHMKQLPLDIIPPPPTLSNFVTGRNAELLQTLDNLLMMRKHERFVYIWGGTGCGKSHLLQGVASACKRNDMNTLYFACGERTSFANGSEADCVMVDDVDRLGADAQIGLFHLYNRIRDEGQAFLLVSGSVAPTQLKLRADLLTRLAWGLVYEVHELTDEEKMEAMKSHASSRGLALPQEVCDYLLRHERRDLTSLMAKLNALDKYSLASHRKITVPLVRELLQAAS,not soluble
11,MGSDKIHHHHHHEEPVGEFLPGQVESEENIEGIVTGAYAVLDGYYASDAINSGCSNWQFGDVVSDDAYKGGGGTGDQNQIHLMEIFNANPTGIDFEARWAALYEGIKRCNQAIRLLNGSEVKNKEQRLAEMRFLRGHYYFNLKIIYNQIPWIDETLVDPNEYNKKSNIEFSSDQLWEKILEEFSAAYKVLPESQADYGRPTKMAARAYMAKVYLYQSKWKECLEACDEVIQSGKYELFPDFRNVFLPENDNCSEIIFAIQLSINDGSPNNENGSYGDRLLPPGGPYPVYGFLRPTQNLVNAYKTDVKGLPYNDGKDVSENDYVDVRLDHTLARPNIPFMDVQLYDWTPREASVYGPYSPKKRLVSLNSTYYSPIWPYVNALNFYVIRYADLLLWRAEAAIETGDLETGRKYINMIRERAKNTQHVKTMDQSQDAANYKVGVYDEPFKSKNEAVQALRMERRLEMAHEGIRFFDLVRWGVADEVINAYIAKEKVFRSHLQNAHFVKGKHEYFPIPQSMIDICGTEVMKQNPGY,not soluble
12,MFEGGHSKSFSIFPIRVVYMPVEQGEVPATILISVSKRRFKRAVKRNRVKRQIREVYRKNKQPLLDGLQNKGQRLAIAFIYLSDELVATAELEEKMKTALSRISEKLSL,not soluble
13,SADAFSLQRVLETFRSSLSENKEVYIKYYIAGWQELVSFMNSLGNVFSFISKDVVSKIQILENFLSGENGSNYVTIQSMVKYELENDLVDLTKRGSHPESGCRTLLRLHRALRWLELFLERLRTSTEDSKTSVMCSDAYNESLANHHPWLIRKAVGVAFCALPGRETFFDVMNAGDHTQVVALLGESLPLIAEVYQITEDLYAKNNLLELP,soluble
14,MAYGVMSWWDYGHYIETLGHRMPNANPFQAGIGGRRGSINETNVPGAAPFLTAQSEEEATEVLESIHPDPEKSGARYIMSDERMAVDIFMAMPEWTLDTEGYMQPYWTGDGYQYLPSKRYFDSMESRLHFLDGNGLKQYRLVYETWAYQTQEAGYKQVYNFLYGSSIPEVDSGYVKIFEYVKGAKITGTVSPNETVNINTTILTGQGRTFEYSQLEHHHHHH,not soluble
15,MVFEGHLVGTGLKVGVVVGRFNEFITSKLLGGALDGLKRHGVEENDIDVAWVPGAFEIPLIAKKMANSGKYDAVITLGTVIRGATTHYDYVCNEVAKGVASLSLQTDIPVIFGVLTTETIEQAIERAGTKAGNKGYESAVAAIEMAHLSKHWA,not soluble
16,MNPISRVAIIGECMVELKKHDGVLQQGFGGDTLNTAVYLSRLTKQHGVETSYVTGLGHDPFSREMLTAWREEGINTDMVYLSEDKLPGIYAIETAEDGERSFFYWRNDAAAKYWLRERALLSLVKDLCQHQMIYLSGISLAIISDDCRQMLIELLTMCRKEGVKIAFDNNFRPKLWPNIEQARDFYSKILSVTDMAFLTFDDEVMLWGDKHE,not soluble
17,MSHAIQIREAHFPGRAPIDAYGNGGFRFADMSHRGSIICIPSGIYGIDMTGPVPTQEDISRVLEESDQIEVLLIGTGVELLRLPEELRVLLWEKRISSDTMSTGAAVRTFNVLLAEDRAVAALLFAVE,soluble
18,MGSDKIHHHHHHMSHNKFDIIPAASFSNIGLEMIPPFPGLSSWVQCLWVNNDLKNSSRHVEEKLYPDAGSSLTFEIRNTRINARYFHHTRVVTHRWDTSTRHISVRFRPGGAKALLGLDIDDSQNIEIDLFDTPVSQQLSLQPLMDMLPALSADQQVQAVQNWLLTLSYRAQEPSRKWSTLLAHASADLIPPQQLALQNGFSRRTLERQLRKYLGFTPNQLHGFAQIRAARQYLILTPDSLSDIALACGYFDQAHFTNAFREQTLETPLQYRQRKMSQISNR,not soluble
19,MAELSNCSKCGRLFVKLSTRDVCESCYQEEERQFERVYAFLRKRENRTATMAQVVEATGVEEKLIIKWIRAGRLQLVHFPNLGYPCDSCGAMIREGRLCAKCLGQLQADLRRAEGKKEKEARSRHATYYTQDHKER,not soluble
20,MGSDKIHHHHHHMNILVIGANGGVGSLLVQQLAKENVPFTAGVRQSDQLNALKSQGMKAILVDVENDSIETLTETFKPFDKVIFSVGSGGNTGADKTIIVDLDGAVKSMIASKEANIKHYVMVSTYDSRRQAFDDSGDLKPYTIAKHYADDYLRRSGLNYTILHPGALTNAAGSGKIEAAQYFDGKGEIPREDVATVLKEIVTSNHFNHQEFQIISGEQDIKDALTQFEIEKD,not soluble
21,MGRFQTLDYEIPESMQRSWQDIVNLLAQIADVPTTLIMRVHQNHIEVNTSSDTQGNPYKAGDKEDLGHGLYCEHVIETKSQLVVPDALADEKWSNNPDIKLGMLSYCGLPLFWPNGETFGTICMLDSKANEYSETYRQLLNTFKDSIEAQLAVVYQQYKLLR,not soluble
22,MHQQIIKFWFEELTPQNWFENNPELDKHIASRFASVLEQAARCELFNWRDSAQGRLAEIIVLDQFSRNVYRNTPKAFAQDPLALALAQEAIRLGHDQELAPEQLSFLYMPFMHSESRLIHVEAEKLFRASGLENNYDFELKHKAIIDQFGRYPHRNAILGRESTPEELAFLQQPGSSF,not soluble
23,SATPLDNCLRPFPDPMVKVTAETKKISEVSSYVSANNKKNSFWGSGLLYPVALLRCQDCWAGHQTHVLSKEFTSYFSSGAGREAQHQPSAVLGSLIWLRRVYLLRAMVVHGGSQPCQRWLVIRMEVGGHPSFPGHAWLTFHLN,soluble
